Assay results from the DeepSol protein solubility set.

Assay: soluble on expression in E. coli; label from the status in PepcDB or PDB records

| Sequence | soluble on expression in E. coli |
| --- | --- |
| KLNRAIGVIDSGVGGLTVAKELIRQLPKERIIYLGDTARCPYGPRSREEVRQFTWEMTEHLLDLNIKMLVIACNTATAVVLEEMQKQLPIPVVGVIHPGSRTALKVTNTYHVGIIGTIGTVKSGAYEEALKSINNRVMVESLACPPFVELVESGNFESEMAYEVVRETLQPLKNTDIDTLILGCTHYPILGPVIKQVMGDKVQLISSGDETAREVSTILYHSKMLNEGEEQSDHLFLTTGKIGLFKEIASKWFGQPIENVKHIHLEK | soluble |
| TADNNSMPHGAVSSYAKLVQNQTPEDILEEFPEIIPLQQRPNTRSSETSNDESGETCFSGHDEEQIKLMNENCIVLDWDDNAIGAGTKKVCHLMENIEKGLLHRAFSVFIFNEQGELLLQQRATEKITFPDLWTNTCCSHPLCIDDELGLKGKLDDKIKGAITAAVRKLDHELGIPEDETKTRGKFHFLNRIHYMAPSNEPWGEHEIDYILFYKINAKENLTVNPNVNEVRDFKWVSPNDLKTMFADPSYKFTPWFKIICENYLFNWWEQLDDLSEVENDRQIHRML | soluble |
| MLKLLIVDDAMFMRTMIKNIVKDSDFEVVAEAENGLEAVKKYDEVKPDIVTLDITMPEMDGLEALAQIMAKDPSAKVIMCSAMGQQGMVVDAIKKGAKDFIVKPFQADRVLEALEKAAK | not soluble |
| HKGTLYVVATPLGNLDDMTFRAVNTLRNAGAIACEDTRRTSILLKHFGIEGKRLVSYHSFNEERAVRQVIELLEEGSDVALVTDAGTPAISDPGYTMASAAHAAGLPVV | not soluble |
| MEGTMTCIYESVITGVGSEVQYFIEENMVVIFNDTVPDDLKSIGVIHKHTELQADVAAGDVLEVNGACFRILFVGDKVNDTLREIGHCTIAFNGETNADLPGTLCVEKKPLPDFVTGATIKFIKE | not soluble |
| MLKKYLISLDKDIQRRELFFSQKNTEDFQVFSAINTMQKDWDELAAIFNIEQFKAHYFRNVTKGEIGCTLSHLSVYQKIVEDNDIAEDSYALVCEDDALFHSDFQQNLTALLSEKLEAEIILLGQSKINDFNDFDLEINYPTTFSFLCKKTGDVNYAFPYKSYFAGTVGYLIKKSAARRFIQQISQNKPFWLADDFLLFEQNFNIRNKVVRPLIVIENPVLISNLESVRGSLSNNLLKKLMKYPLKKIFAIKKNLAN | soluble |
| TQEDVVVTLSHQGYVKYQPLSEYEAQRRGGKGKSAARIKEEDFIDRLLVANTHDHILCFSSRGRVYSMKVYQLPEATRGARGRPIVNLLPLEQDERITAILPVTEFEEGVKVFMATANGTVKKTVLTEFNRLRTAGKVAIKLVDGDELIGVDLTSGEDEVMLFSAEGKVVRFKESSVRAMGCNTTGVRGIRLGEGDKVVSLIVPRGDGAILTATQNGYGKRTAVAEYPTKSRATKGVISIKVTERNGLVVGAVQVDDCDQIMMITDAGTLVRTRVSEISIVGRNTQGVILIRTAEDENVVGLQRVAE | soluble |
| PDVKFLEGRYCSVEHIDARKHLNDIIDFYWKNAVPSDWTYMFDQPFETAEAVQERLQDYEKSENPYFFAIRDKETDKVLGTFSLMRIDPKNRVLEMGRVIYAPALQKTSAATEAQYLVMNYVFENLGYRRYEWKCDHLNQSSGNAAKRLGFTYEGTFRKHVVYKGRTRDTDWFSVIDQDWPKLKKRFENWLSPKNF | not soluble |
| MEKKYRKEPVEIPPEIAETAAGGKVPETDVTEQYPQMEEMNGTEAAGEMPQIGPMYPIPQVPAQPTEPAQQMGQMPCMQPIPQMVPVVCCPFLLQMHCPMMPMDYSSMSHPTYQTAPQAMPQTMQAVPQPATPAQYAPGPCGSPYYPQHSGSPCGYGSDMYDQNYNSSMYNPSMYNPMRPGYY | not soluble |
| MLIVRPSGRAAEDVETCLNAGWRAEVLSPVEIEADAAGLELLSEQYARADAVFWVSPTAVETAVPYLNLSDGIKAQIAVGQGSRRALERCLVRTVIAPDDGNDSEAVLRLPVWNSLPEGARVLFVRGHGGRDFLMNALQEKGFRTEVAEVYFRRHKPLNFQNFQTENIAAAYITSTELVRLLFGQLPPQFSRFFKSLLYFTHHPRIAEALKREGVCSVETVPTLEAALSHSSISVSDGMVFPGTSN | not soluble |
| MGSDKIHHHHHHMKKYYIYILTAVLPILWGACNNGDDIDTKHSIFSTEPMEHNGFDEWLLANYTYPYNVDFKYRMQDIESDHKYNLVPADYDKSVALAKIIKHVWMEAYTELAGPAFLRSYVPKTFHLIGSPAYDSSGTKVLGTAEGGKKITLYEVNSLDFENVDIEVLNEYYFKTMHHEFAHILHQKRNYDPSFDRITEGKYVGSDWYFYVAENGNSYLREDADAWPEGFVTAYAMSEAREDFVENIAMYVTHDQAYWDNMLKVAGTAGAAIINQKFTIVYNYMLETWGINLDDLREIVLRRQQEIPELDLSTIE | not soluble |
| GPLGSGMRFMPVQSNFVINHGKLTNQLLQAVAKQTRNGDTQQWFQQEQTTYISRTVNRTLDDYCRSNNSVISKETKGHIFRAVENALQQPLDMNGAQSSIGHFLQSNKYFNQKVDEQCGKRVDPITRFNTQTKMIEQVSQEIFERNFSGFKVSEIKAITQNAILEHVQDTRL | soluble |
| GSQQGKFDTKGIESTDEAKMSFLVTLNNVEVCSENISTLKKTLESDCTKLFSQGIGGEQAQAKFDSCLSDLAAVSNKFRDLLQEGLTELNSTAIKPQVQPWINSFFSVSHNIEEEEFNDYEANDPWVQQFILNLEQQMAEFKASLSPVIYDSLTGLMTSLVAVELEKVVLKSTFNRLGGLQFDKELRSLIAYLTTVTTWTIRDKFARLSQMATILNLERVTEILDYWGPNSGPLTWRLTPAEVRQVLALRIDFRSEDIKRLRL | soluble |
| MFRISLEEFEGPLDLLLFFIKRDELDIYNIPISKITGDFIAYIHAMRRLNLEVAAEFIYMASMLMSIKARMLLPRAEPVDGEADEFDPRTELVQRLLEYKRIKEGASELELMALDRERMFPRGYFEELEPAVIDEMDEPVNRPTLYHLMLAYQSVLDNMPKVRTQNVTDAPVTVEEQSALIMARLGERLQVSFTSLFQEFREAIVIVVTFLAVLELCRNRKISVIVKEGVNDFWISQRDHAE | soluble |
| MNRISTSSVNSSFNYTAPTEEAQNRFASAPDNSPLVVTTTSIAQASEGLQRPGATLSMQAQRLRQLMGSPSEQCRRDTMLAKAFDAQRLNINTQAGSSNSPHLNALNTLQQRHFKPAAGGLEIPVTSNSLLGGGRQVYQIGSSSRELSHRPVNDQDRAPFRALERLHAELFRGGPIEFVPRGSNVLASNVRDVDMDEFDVINSKDGCQGIGTTGLGPCIAVCARGMDREGLPVLGVYHHSGIGSPEDTMATLDQAMRDKGALQIKYSLVGGMIMPKEEEAGSYDDEQSFLALKGSYSIEGARLHVSEGEEDVHTGEDNSVNVLLMPDRVLYGRDTLYC | not soluble |
| EAGAMDERTFGKSIEVYTRQICEELLTTAAGNTDAHYKTYRCPLCGNDSVRVFPKIVKCVTDGCGFKVFRELCGTLLSKEYIHALMTDGCTPLLCRLTGKSGKTFNARLKLDKDGGTSFVFDSKPRKPQT | not soluble |
| DIHRQAYAAMLHSSQSSLGTALKFFHAQSVIDNAYDQEHVHYIDRQVKTRKGMPEASADSIRALLEIDLPARGYSKIDVPCKGSDFCIIGQQHPNSAHFVAIPDYQFLDKSGFDRVVYIWPQGYTLAEEACYFYYVNQASTDSIVRGHVTQGC | not soluble |
| MKTIRLTTAQALVKFLNQQYVEFDGHIQKFVKGIFTIFGHGNVLGLGQALEEDPGELEVYQGRNEQGMAHAAIAFAKQKHRRQIMACTSSVGPGAANMVTAAATASANHIPVLLLPGDTFATRQPDPVLQQIEHWHDLTVSTNDAFRAVSKYWDRISRPEQLMSAMIQAMRVLTDPANTGAVTIALPQDVQGEAYDFPESFFQKRIHRIERRVPAKAAIHEAVELIRRKKKPIIICGGGVRYSEAAEELKQFAEKFHIPYGETQAGKSAVESAHPYNLGGIGVTGNLAANIIAKEADLVIGIGTRYTDFTTGSKQLFQHPEVEFLTINVSVFDACKLDAVRVVADAKLALLALTEELEKIGYRSGYTNEIDIAKKAWEEELNRLHHVRYRQSGFQPEVAGHLDEVLTEYSEFFDSSLTQTEVIGAINEWIDDDAIIIGAAGSLPGDLQRMWVARRPNTYHMEYGYSCMGYEIAGALGVKMAEPDKEVYAMVGDGSYLMLHSELVTSIQEKKKINVLLFDNGGFGCINNLQMGHGMGSFATEFRYRNEETGRLDGSLIPIDFAQSAAGYGVKTYKVHTLEQLKEALEDAKQQSVSTLIDIKVLPKTMTHDYESWWHVGVAEVSRNPKIAEAYKRKEQQLQRARKY | soluble |
